In the supplement of paper PMC11246515:
± gives the standard deviation of the averaged measurements.

Assay: total protein half-life in vivo (active degradation + dilution); higher = more stable protein
[1] = E. coli NCM3722 delta-clpP, growth: N-lim chemostat, doubling time 6 h
[2] = E. coli NCM3722 delta-hslV, growth: N-lim chemostat, doubling time 6 h
[3] = E. coli NCM3722 delta-lon, growth: N-lim chemostat, doubling time 6 h
[4] = E. coli NCM3722 delta-smpB, growth: N-lim chemostat, doubling time 6 h
[5] = wild type E. coli NCM3722, growth: C-lim chemostat, doubling time 6 h
[6] = wild type E. coli NCM3722, growth: C-lim chemostat, doubling time 12 h
[7] = wild type E. coli NCM3722, growth: N-lim chemostat, doubling time 6 h
[8] = wild type E. coli NCM3722, growth: N-lim chemostat, doubling time 12 h
[9] = wild type E. coli NCM3722, growth: P-lim chemostat, doubling time 6 h
[10] = wild type E. coli NCM3722, growth: P-lim chemostat, doubling time 12 h
[11] = E. coli NCM3722 delta-clpP delta-lon delta-hslV, growth: N-lim chemostat, doubling time 6 h
[12] = wild type E. coli NCM3722, growth: C-lim chemostat, doubling time 3 h

Row | Sequence | total protein half-life in vivo [1] [h] | total protein half-life in vivo [2] [h] | total protein half-life in vivo [3] [h] | total protein half-life in vivo [4] [h] | total protein half-life in vivo [5] [h] | total protein half-life in vivo [6] [h] | total protein half-life in vivo [7] [h] | total protein half-life in vivo [8] [h] | total protein half-life in vivo [9] [h] | total protein half-life in vivo [10] [h] | total protein half-life in vivo [11] [h] | total protein half-life in vivo [12] [h]
1 | MRITIILVAPARAENIGAAARAMKTMGFSDLRIVDSQAHLEPATRWVAHGSGDIIDNIKVFPTLAESLHDVDFTVATTARSRAKYHYYATPVELVPLLEEKSSWMSHAALVFGREDSGLTNEELALADVLTGVPMVADYPSLNLGQAVMVYCYQLATLIQQPAKSDATADQHQLQALRERAMTLLTTLAVADDIKLVDWLQQRLGLLEQRDTAMLHRLLHDIEKNITK | 4 ± 0.61 | 3.98 ± 0.83 | 4.08 ± 0.37 | 3.38 ± 0.046 | 5.62 ± 0.99 | 7.53 ± 0.58 | 3.72 ± 0.22 | 5.26 ± 0.45 | 4.87 ± 0.26 | 11.5 ± 2.5 | – | –
2 | MDQKQIEEIVRSVMASMGQAAPAPSEAKCATTNCAAPVTSESCALDLGSAEAKAWIGVENPHRADVLTELRRSTVARVCTGRAGPRPRTQALLRFLADHSRSKDTVLKEVPEEWVKAQGLLEVRSEISDKNLYLTRPDMGRRLCAEAVEALKAQCVANPDVQVVISDGLSTDAITVNYEEILPPLMAGLKQAGLKVGTPFFVRYGRVKIEDQIGEILGAKVVILLVGERPGLGQSESLSCYAVYSPRMATTVEADRTCISNIHQGGTPPVEAAAVIVDLAKRMLEQKASGINMTR | 3.65 ± 0.13 | 3.19 ± 0.053 | 4.21 ± 0.95 | 3.11 ± 0.17 | 5.43 ± 0.85 | 8.48 ± 0.82 | 3.41 ± 0.32 | 4.31 ± 0.15 | 4.69 ± 0.096 | 9.58 ± 0.56 | 5.05 ± 0.91 | 2.6 ± 0.1
3 | MALKATIYKATVNVADLDRNQFLDASLTLARHPSETQERMMLRLLAWLKYADERLQFTRGLCADDEPEAWLRNDHLGIDLWIELGLPDERRIKKACTQAAEVALFTYNSRAAQIWWQQNQSKCVQFANLSVWYLDDEQLAKVSAFADRTMTLQATIQDGVIWLSDDKNNLEVNLTAWQQPS [P0AA97] | 3.9 ± 0.19 | 4.82 ± 0.38 | 5.25 ± 0.72 | 3.354 ± 0.009 | – | 8.84 ± 1.6 | 4.38 | 7.28 ± 0.26 | 4.93 ± 0.28 | – | 5.6431 ± 0.0016 | –
4 | MKKFSGIIPPVSSTFHRDGTLDKKAMREVADFLINKGVDGLFYLGTGGEFSQMNTAQRMALAEEAVTIVDGRVPVLIGVGSPSTDEAVKLAQHAQAYGADGIVAINPYYWKVAPRNLDDYYQQIARSVTLPVILYNFPDLTGQDLTPETVTRLALQNENIVGIKDTIDSVGHLRTMINTVKSVRPSFSVFCGYDDHLLNTMLLGGDGAITASANFAPELSVGIYRAWREGDLATAATLNKKLLQLPAIYALETPFVSLIKYSMQCVGLPVETYCLPPILEASEEAKDKVHVLLTAQGILPV | 2.73 ± 0.14 | – | – | 3.17 ± 1.4 | 4.76 ± 0.24 | 9.39 ± 0.15 | 3.68 | – | – | 11.11 ± 0.052 | 4.88 ± 0.66 | 2.83 ± 0.1
5 | MVERTAVFPAGRHSLYAEHRYSAAIRSGDLLFVSGQVGSREDGTPEPDFQQQVRLAFDNLHATLAAAGCTFDDIIDVTSFHTDPENQFEDIMTVKNEIFSAPPYPNWTAVGVTWLAGFDFEIKVIARIPEQ | 4.29 ± 0.47 | 5.62 ± 1.5 | 5.45 ± 0.62 | 4.61 ± 0.57 | 6.32 | 11.5 ± 1.1 | 5.02 ± 0.087 | 8.83 ± 0.12 | 5.604 ± 0.05 | 12.1 ± 0.51 | 5.72 ± 0.59 | 3.61
6 | MKALHFGAGNIGRGFIGKLLADAGIQLTFADVNQVVLDALNARHSYQVHVVGETEQVDTVSGVNAVSSIGDDVVDLIAQVDLVTTAVGPVVLERIAPAIAKGQVKRKEQGNESPLNIIACENMVRGTTQLKGHVMNALPEDAKAWVEEHVGFVDSAVDRIVPPSASATNDPLEVTVETFSEWIVDKTQFKGALPNIPGMELTDNLMAFVERKLFTLNTGHAITAYLGKLAGHQTIRDAILDEKIRAVVKGAMEESGAVLIKRYGFDADKHAAYIQKILGRFENPYLKDDVERVGRQPLRKLSAGDRLIKPLLGTLEYGLPHKNLIEGIAAAMHFRSEDDPQAQELAALIADKGPQAALAQISGLDANSEVVSEAVTAYKAMQ | 4.85 ± 0.21 | 5.32 ± 0.44 | 4.91 ± 0.1 | 4.6 ± 0.39 | 6.18 ± 0.63 | 10.8 ± 1.2 | 4.86 ± 0.35 | 8.39 ± 0.13 | 6.02 ± 0.068 | 11.6 ± 0.34 | 5.84 ± 2 | –
